Assay results reported in patent US20210246166A1 (Bayer, published 2021).
Numbered stars: 1 amine (or outer) side, 2 acyl side, 3 side chain; on linkers, the order of the positions; unused ones are H or OH. Bridge positions count the residues as written; N and C are the ends. Square brackets hold non-standard residues; d marks the D form. Ends that are not written are not given here. Phe(2,3-F2) = (2S)-3-(2,3-difluorophenyl)-2-aminopropanoic acid, O=C([C@H](Cc1cccc(F)c1F)N[*:1])[*:2]; X7 = 4‑(3,5-Dimethyl-1,2-oxazol-4-yl)‑L‑phenylalanine, Cc1noc(C)c1-c1ccc(C[C@H](N[*:1])C(=O)[*:2])cc1; His(τ-Bzl) = N[C@@H](Cc1cn(Cc2ccccc2)cn1)C(=O)O; Pro(4-spirocPr) = O=C(O)[C@@H]1CC2(CC2)CN1; Oic = O=C(O)[C@@H]1C[C@@H]2CCCC[C@@H]2N1; tBuAla = CC(C)(C)C[C@H](N)C(=O)O; (3-Me)H = L-3-methylhistidine; Pen = CC(C)(S)[C@H](N)C(=O)O; NMeA = CN[C@@H](C)C(=O)O; Orn = NCCC[C@H](N)C(=O)O; Nva = CCC[C@H](N)C(=O)O; Sar = CNCC(=O)O

T1: recombinant rat MASP1 active protease (amino acids 302-704, C-terminal His Tag) (rat, UniProt Q8CHN8 302-704)
T1 sequence: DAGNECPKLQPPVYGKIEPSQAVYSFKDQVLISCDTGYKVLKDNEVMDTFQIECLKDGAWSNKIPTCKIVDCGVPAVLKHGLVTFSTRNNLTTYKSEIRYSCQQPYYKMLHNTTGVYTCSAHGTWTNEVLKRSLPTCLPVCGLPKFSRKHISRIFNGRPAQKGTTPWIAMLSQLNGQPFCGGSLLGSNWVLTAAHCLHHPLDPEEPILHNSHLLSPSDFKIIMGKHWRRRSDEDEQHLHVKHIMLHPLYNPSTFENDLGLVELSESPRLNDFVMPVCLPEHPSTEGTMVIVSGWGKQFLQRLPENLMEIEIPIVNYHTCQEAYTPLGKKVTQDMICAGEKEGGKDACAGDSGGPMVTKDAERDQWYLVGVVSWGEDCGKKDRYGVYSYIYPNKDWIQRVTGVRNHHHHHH


What was measured:
[1] = biological target: T1, recombinant rat MASP1 active protease …; assay: cell-based or functional assay
[2] = biological target: recombinant rat MASP2 active protease (amino acids 296-685, C-terminal His Tag) (rat, UniProt Q9JJS8 296-685); assay: cell-based or functional assay
Sequence of recombinant rat MASP2 active protease (amino acids 296-685, C-terminal His Tag) (Q9JJS8 other isoform, or with tags, fused parts or gaps limits assumed): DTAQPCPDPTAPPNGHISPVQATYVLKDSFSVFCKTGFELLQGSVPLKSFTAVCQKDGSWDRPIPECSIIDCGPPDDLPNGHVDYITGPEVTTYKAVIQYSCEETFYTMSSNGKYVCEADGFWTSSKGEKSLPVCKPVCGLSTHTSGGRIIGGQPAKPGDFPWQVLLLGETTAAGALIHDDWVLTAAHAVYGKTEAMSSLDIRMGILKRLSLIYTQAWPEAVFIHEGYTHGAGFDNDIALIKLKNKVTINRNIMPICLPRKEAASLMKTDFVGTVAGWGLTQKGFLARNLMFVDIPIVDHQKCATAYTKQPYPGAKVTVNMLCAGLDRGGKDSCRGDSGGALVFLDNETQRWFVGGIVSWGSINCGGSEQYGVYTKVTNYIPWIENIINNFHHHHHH

Binder	rat MASP1 IC50 [1] [nM]	rat MASP2 IC50 [2] [nM]
[dF]ICSRSLP[Oic]I[Pen]IP-NH2 (disulfide 3-11; N-terminus assumed; SMILES CC[C@H](C)[C@H](NC(=O)[C@H](N)Cc1ccccc1)C(=O)N[C@H]1CSSC(C)(C)[C@@H](C(=O)N[C@H](C(=O)N2CCC[C@H]2C(N)=O)[C@@H](C)CC)NC(=O)[C@H]([C@@H](C)CC)NC(=O)[C@@H]2C[C@@H]3CCCC[C@@H]3N2C(=O)[C@@H]2CCCN2C(=O)[C@H](CC(C)C)NC(=O)[C@H](CO)NC(=O)[C@H](CCCNC(=N)N)NC(=O)[C@H](CO)NC1=O) [Example 370: fIC+SRSLP-(Oic)-I-(Pen)+IP-NH2]	235	170
[NMeA]ICSRS[tBuAla]P[(3R,6R)‑1,1‑Difluoro‑5‑azaspiro(2.4)heptane‑6‑carboxylic acid (enantiomer 2)]I[Pen]IP-NH2 (disulfide 3-11)	150	94
[Sar]ICSRSLP[Oic]I[Pen]IP[5‑Azaspiro(2.4)heptane‑1‑carboxylic acid]-OH (disulfide 3-11) [Example 438: ((N-Me)G)-IC+SRSLP-(Oic)-I-(Pen)+IP-((5-Azaspiro[2.4]heptane-1-carboxylic acid)-OH]	31	22
[Sar][Orn][Orn][Orn]ICSRS[tBuAla]PPI[Pen]IP-NH2 (disulfide 6-14; N-terminus assumed; SMILES CC[C@H](C)[C@H](NC(=O)[C@H](CCCN)NC(=O)[C@H](CCCN)NC(=O)[C@H](CCCN)NC(=O)CNC)C(=O)N[C@H]1CSSC(C)(C)[C@@H](C(=O)N[C@H](C(=O)N2CCC[C@H]2C(N)=O)[C@@H](C)CC)NC(=O)[C@H]([C@@H](C)CC)NC(=O)[C@@H]2CCCN2C(=O)[C@@H]2CCCN2C(=O)[C@H](CC(C)(C)C)NC(=O)[C@H](CO)NC(=O)[C@H](CCCNC(=N)N)NC(=O)[C@H](CO)NC1=O) [Example 381: ((N-Me)G)-(Orn)-(Orn)-(Orn)-IC+SRS-((tBu)A)-PPI-(Pen)+IP-NH2]	600	470
[Sar]ICSRS[tBuAla]P[Pro(4-spirocPr)]I[Pen]IP-NH2 (disulfide 3-11; N-terminus assumed; SMILES CC[C@H](C)[C@H](NC(=O)CNC)C(=O)N[C@H]1CSSC(C)(C)[C@@H](C(=O)N[C@H](C(=O)N2CCC[C@H]2C(N)=O)[C@@H](C)CC)NC(=O)[C@H]([C@@H](C)CC)NC(=O)[C@@H]2CC3(CC3)CN2C(=O)[C@@H]2CCCN2C(=O)[C@H](CC(C)(C)C)NC(=O)[C@H](CO)NC(=O)[C@H](CCCNC(=N)N)NC(=O)[C@H](CO)NC1=O)	36	9.4
GICSRSLP[Oic]ICIPD-OH (disulfide 3-11; N-terminus assumed; SMILES CC[C@H](C)[C@H](NC(=O)CN)C(=O)N[C@H]1CSSC[C@@H](C(=O)N[C@H](C(=O)N2CCC[C@H]2C(=O)N[C@@H](CC(=O)O)C(=O)O)[C@@H](C)CC)NC(=O)[C@H]([C@@H](C)CC)NC(=O)[C@@H]2C[C@@H]3CCCC[C@@H]3N2C(=O)[C@@H]2CCCN2C(=O)[C@H](CC(C)C)NC(=O)[C@H](CO)NC(=O)[C@H](CCCNC(=N)N)NC(=O)[C@H](CO)NC1=O) [Example 323: GIC+SRSLP-(Oic)-IC+IPD-OH]	51.8	60.1
ICSRSLP[Oic]I[Pen]IPD-OH (disulfide 2-10; N-terminus assumed; SMILES CC[C@H](C)[C@H](N)C(=O)N[C@H]1CSSC(C)(C)[C@@H](C(=O)N[C@H](C(=O)N2CCC[C@H]2C(=O)N[C@@H](CC(=O)O)C(=O)O)[C@@H](C)CC)NC(=O)[C@H]([C@@H](C)CC)NC(=O)[C@@H]2C[C@@H]3CCCC[C@@H]3N2C(=O)[C@@H]2CCCN2C(=O)[C@H](CC(C)C)NC(=O)[C@H](CO)NC(=O)[C@H](CCCNC(=N)N)NC(=O)[C@H](CO)NC1=O) [Example 347: IC+SRSLP-(Oic)-I-(Pen)+IPD-OH]	1000	1000
[Sar][Orn][Orn][Orn]ICSRSLP[Oic]I[Pen]IP-NH2 (disulfide 6-14; N-terminus assumed; SMILES CC[C@H](C)[C@H](NC(=O)[C@H](CCCN)NC(=O)[C@H](CCCN)NC(=O)[C@H](CCCN)NC(=O)CNC)C(=O)N[C@H]1CSSC(C)(C)[C@@H](C(=O)N[C@H](C(=O)N2CCC[C@H]2C(N)=O)[C@@H](C)CC)NC(=O)[C@H]([C@@H](C)CC)NC(=O)[C@@H]2C[C@@H]3CCCC[C@@H]3N2C(=O)[C@@H]2CCCN2C(=O)[C@H](CC(C)C)NC(=O)[C@H](CO)NC(=O)[C@H](CCCNC(=N)N)NC(=O)[C@H](CO)NC1=O) [Example 405: ((N-Me)G)-(Orn)-(Orn)-(Orn)-IC+SRSLP-(Oic)-I-(Pen)+IP-NH2]	650	510
[NMeA]ICSRS[tBuAla]P[(3R,6R)‑1,1‑Difluoro‑5‑azaspiro(2.4)heptane‑6‑carboxylic acid (enantiomer 1)]I[Pen]IP-NH2 (disulfide 3-11)	29	4.7
[Sar]ICSRSLP[Oic]I[Pen]I[5‑Azaspiro(2.4)heptane‑1‑carboxylic acid]-OH (disulfide 3-11) [Example 419: ((N-Me)G)-IC+SRSLP-(Oic)-I-(Pen)+I-((5-Azaspiro[2.4]heptane-1-carboxylic acid)-OH]	70	42
[X7]ICSRSLP[Oic]I[Pen]IP-NH2 (disulfide 3-11; N-terminus assumed; SMILES CC[C@H](C)[C@H](NC(=O)[C@@H](N)Cc1ccc(-c2c(C)noc2C)cc1)C(=O)N[C@H]1CSSC(C)(C)[C@@H](C(=O)N[C@H](C(=O)N2CCC[C@H]2C(N)=O)[C@@H](C)CC)NC(=O)[C@H]([C@@H](C)CC)NC(=O)[C@@H]2C[C@@H]3CCCC[C@@H]3N2C(=O)[C@@H]2CCCN2C(=O)[C@H](CC(C)C)NC(=O)[C@H](CO)NC(=O)[C@H](CCCNC(=N)N)NC(=O)[C@H](CO)NC1=O) [Example 360: (4-(3,5-Dimethyl-1,2-oxazol-4-yl)-L-phenylalanine)-IC+SRSLP-(Oic)-I-(Pen)+IP-NH2]	120	73

Next, values leading:

rat MASP1 IC50 [1] [nM]	rat MASP2 IC50 [2] [nM]	Binder
410	120	[Sar]ICSRS[Phe(2,3-F2)]P[Oic]I[Pen]IP-NH2 (disulfide 3-11; N-terminus assumed; SMILES CC[C@H](C)[C@H](NC(=O)CNC)C(=O)N[C@H]1CSSC(C)(C)[C@@H](C(=O)N[C@H](C(=O)N2CCC[C@H]2C(N)=O)[C@@H](C)CC)NC(=O)[C@H]([C@@H](C)CC)NC(=O)[C@@H]2C[C@@H]3CCCC[C@@H]3N2C(=O)[C@@H]2CCCN2C(=O)[C@H](Cc2cccc(F)c2F)NC(=O)[C@H](CO)NC(=O)[C@H](CCCNC(=N)N)NC(=O)[C@H](CO)NC1=O)
21	35	[Sar]ICSRS[tBuAla]PPI[Pen]IP[His(τ-Bzl)]-OH (disulfide 3-11; N-terminus assumed; SMILES CC[C@H](C)[C@H](NC(=O)CNC)C(=O)N[C@H]1CSSC(C)(C)[C@@H](C(=O)N[C@H](C(=O)N2CCC[C@H]2C(=O)N[C@@H](Cc2cn(Cc3ccccc3)cn2)C(=O)O)[C@@H](C)CC)NC(=O)[C@H]([C@@H](C)CC)NC(=O)[C@@H]2CCCN2C(=O)[C@@H]2CCCN2C(=O)[C@H](CC(C)(C)C)NC(=O)[C@H](CO)NC(=O)[C@H](CCCNC(=N)N)NC(=O)[C@H](CO)NC1=O) [Example 447: ((N-Me)G)-IC+SRS-((tBu)A)-PPI-(Pen)+IP-((1-Bn)H)-OH]
5000	5000	[Sar]ICRRS[tBuAla]PP[Nva][Pen]IP-NH2 (disulfide 3-11; N-terminus assumed; SMILES CCC[C@@H]1NC(=O)[C@@H]2CCCN2C(=O)[C@@H]2CCCN2C(=O)[C@H](CC(C)(C)C)NC(=O)[C@H](CO)NC(=O)[C@H](CCCNC(=N)N)NC(=O)[C@H](CCCNC(=N)N)NC(=O)[C@@H](NC(=O)[C@@H](NC(=O)CNC)[C@@H](C)CC)CSSC(C)(C)[C@@H](C(=O)N[C@H](C(=O)N2CCC[C@H]2C(N)=O)[C@@H](C)CC)NC1=O) [Example 448: ((N-Me)G)-IC+RRS-((tBu)A)-PP-(Nva)-(Pen)+IP-NH2]
46	40	[Sar]ICSRSLP[Oic]I[Pen]IP[(2S)‑3‑(Triazol-1-yl)‑2‑(amino)propanoic acid]-NH2 (disulfide 3-11) [Example 437: ((N-Me)G)-IC+SRSLP-(Oic)-I-(Pen)+IP-((2S)-3-(Triazol-1-yl)-2-(amino)propanoic acid)-NH2]
39	31	[Sar]ICSRSLP[Oic]I[Pen]IPP[(2S)‑3‑(Triazol-1-yl)‑2‑(amino)propanoic acid]-NH2 (disulfide 3-11)
130	9.8	[(3-Me)H]ICSRSLP[Oic]I[Pen]IP-NH2 (disulfide 3-11) [Example 444: ((3-Me)H)-IC+SRSLP-(Oic)-I-(Pen)+IP-NH2]
610	14	[Sar]ICSRS[Phe(2,3-F2)]PPI[Pen]IP-NH2 (disulfide 3-11; N-terminus assumed; SMILES CC[C@H](C)[C@H](NC(=O)CNC)C(=O)N[C@H]1CSSC(C)(C)[C@@H](C(=O)N[C@H](C(=O)N2CCC[C@H]2C(N)=O)[C@@H](C)CC)NC(=O)[C@H]([C@@H](C)CC)NC(=O)[C@@H]2CCCN2C(=O)[C@@H]2CCCN2C(=O)[C@H](Cc2cccc(F)c2F)NC(=O)[C@H](CO)NC(=O)[C@H](CCCNC(=N)N)NC(=O)[C@H](CO)NC1=O) [Example 440: ((N-Me)G)-IC+SRS-((2S)-3-(2,3-difluorophenyl)-2-aminopropanoic acid)-PPI-(Pen)+IP-NH2]
